Laboratory results: publication PMC2139951

Assays:
[1] = molecular target: Ran (recombinant, GTP form) (UniProt P62826); assay: inhibition of GAP-induced GTP hydrolysis on Ran
[2] = molecular target: Ran (recombinant, GTP form) (UniProt P62826)

| Kd [1] | offrate [2] | Substance |
| --- | --- | --- |
| 25 nM | 2 h | recombinant Xenopus RanBP7 with COOH-terminal his-tag (natural protein) |
| 0.8 nM | – | recombinant importin-β (from UniProt Q14974 1-876) (natural protein; other documents disagree on this pair) |
